According to patent US9383360B2, “Compositions and methods relating to lyme disease” (The United States of America, as represented by the …, priority 2012, dated 2016):

Legend:
[1] = tested on: chondrocyte aggregate cultures; assay: Chondrocyte cytokine induction assay (Proteome Profiler Cytokine Arrays); format: cell-based, human; settings: for Cytokines released by chondrocytes in response: LPS, medium alone
Description: Chondrocyte aggregate cultures are used which form an extensive extracellular matrix with components characteristic of articular cartilage including aggrecan and type II collagen as described in Welter, J. et al, BioTechniques, 2007, 42(6):732-737; and Solchaga, L. A. et al., Chondrogenic Differentiation of Bone Marrow-Derived Mesenchymal Stem Cells: Tips and Tricks, 2011, 698:253-278.
To form the chondrocyte aggregate cultures, lx10^6 human mesenchymal stem cells (passage one, Lonza, catalog #PT-2501) were plated in a T150 flask (Corning) and cultured in growth media: mesenchymal stem cell basal media (MSCBM, Lonza, #PT-3238), mesenchymal growth supplements (SingleQuots, Lonza, #PT-4105), and 5 ng/ml recombinant human […] (Shenandoah Biotechnology). When confluent, cells were trypsin-released (0.5% trypsin EDTA, Gibco), expanded to two T150 flasks and fed with growth media every three days. When confluent, cells were harvested, resuspended in fresh growth media containing 5% DMSO and aliquots of 1×10^6 cells were cryopreserved in liquid nitrogen.
Human mesenchymal stem cells were used to promote chondrogenesis and chondrocyte aggregate formation for use in these studies. Two vials of passage three cryopreserved cells were thawed, plated in growth media in two T150 flasks and then expanded to six T150 flasks as above. Cells were harvested (0.5% trypsin EDTA, Gibco), pooled, enumerated and induced to chondrogenic differentiation as follows. Cells were resuspended in defined chondrocyte differentiation media: high glucose DMEM (Gibco), 50 μg/ml ascorbic acid-2-phosphate (Sigma), 39.3 ng/ml dexamethasone (Sigma), […] L-proline (Sigma), ITS+Premix (BD Biosciences), 10 ng/ml transforming growth factor β-3 (Shenandoah Biotechnology) and 30 μg/ml gentamicin sulfate+15 ng/ml amphotericin-B (GA-1000, Lonza, #PT-4504E). High density aggregates were obtained by plating, on average, 3×10^5 cells per well in a conical bottom 96 well plate (Thermo Scientific), pelleting by centrifugation (5 minutes at 600 g), and incubation at 37° C. and 5% CO2. Pellets formed coherent spherical aggregates by day two of culture. After seven days, wide bore tips were used to transfer aggregates to V-bottom 96 well plates (Corning). Aggregates were maintained in differentiation media at 37° C. and 5% CO2 for 3-5 weeks and fed every two days until experimentation.
For chondrocyte cytokine induction assays, 24 hours prior to experimentation, dexamethasone containing media was removed, aggregates were rinsed with DPBS (Gibco) and dexamethasone-free differentiation media was added. For experimentation, aggregates were transferred to 24 well plates (24 aggregates per condition), spent media was removed and fresh warmed dexamethasone-free media containing samples was added. Aggregates were then incubated at 37° C. and 5% CO2 for two days.
Recombinant BbHtrA or BbHtrA^S226A was added to culture medium and incubated with chondrocyte aggregate cultures. BbHtrA and BbHtrA^S226A were purified using an E. coli system and was expected to contain endotoxin which would have a stimulatory effect on the chondrocytes. To control for endotoxin contamination (lipopolysaccharide, LPS), an endotoxin removal kit (Noragen) was used to remove the bulk of LPS from recombinant BbHtrAs. The relative toxicity of the amount remaining in the BbHtrA and BbHtrA^S226A samples was determined by a chromogenic Limulus Amoebocyte Lysate (LAL) method (Lonza, Walkersville, Md.). Prior to addition to aggregates, LPS (44 ng, 200 EU), BbHtrA^WT (20 μg, 27.9 EU LPS) and BbHtrA^S226A ([…], 1.99 EU LPS) were incubated in 1 mg/ml polymyxin B sulfate (Sigma) on ice for 30 min with occasional mixing. Warmed dexamethasone-free medium was then added to each test condition to a final volume of 1 ml. Control aggregates were maintained in untreated medium also containing polymyxin B sulfate. The final concentration for all test conditions was 60 μg/ml polymyxin B sulfate. […]

Biglycan = assay: BbHtrA proteolysis assay, biglycan substrate; format: biochemical, bovine, human; settings: SDS-PAGE, FIG. 5
Procedure: (§1) For proteolysis assays described in Examples herein, purified protein substrates (200-600 nM) and proteases (100-150 nM) were diluted in assay buffer (50 mM HEPES, pH 7.4, 5 mM CaCl2) and incubated overnight at 37° C. Samples were boiled for 4 minutes to inactivate the proteases. Proteoglycans were deglycosylated by overnight incubation at 37° C. with 0.01 U chondroitinase ABC (Seikagaku). Reactions were stopped by the addition of SDS/PAGE sample buffer, boiled for 4 minutes, and electrophoresed on pre-cast Tris-glycine gels (BioRad). Reaction products were visualized by silver staining.
(§2) Purified proteins were incubated with BbHtrA or BbHtrA^S226A as described herein. HtrA (also known as DegP) proteases belong to the family of serine proteases which contain a highly reactive serine residue in their active site. This serine (Ser210 in DegP) is part of the canonical His-Ser-Asp catalytic triad and mutation of the catalytic serine abolishes proteolytic activity (Skorko-Glonek et al., 1995). In BbHtrA, residues His119, Ser226 and Asp149 form the catalytic triad and mutation of serine 226 to alanine abolished proteolytic activity as expected (FIG. 5).
(§3) Reaction products were separated by SDS-PAGE and silver stained. Native collagen II and recombinant tenascin C were not degraded by BbHtrA indicating selectivity for proteoglycans, E-cadherin and fibronectin. […]

Neurocan = Neurocan (Homo sapiens, UniProt O14594); assay: BbHtrA proteolysis assay, neurocan substrate; format: biochemical; settings: SDS-PAGE, FIG. 5
Neurocan, sequence (O14594 23-1321): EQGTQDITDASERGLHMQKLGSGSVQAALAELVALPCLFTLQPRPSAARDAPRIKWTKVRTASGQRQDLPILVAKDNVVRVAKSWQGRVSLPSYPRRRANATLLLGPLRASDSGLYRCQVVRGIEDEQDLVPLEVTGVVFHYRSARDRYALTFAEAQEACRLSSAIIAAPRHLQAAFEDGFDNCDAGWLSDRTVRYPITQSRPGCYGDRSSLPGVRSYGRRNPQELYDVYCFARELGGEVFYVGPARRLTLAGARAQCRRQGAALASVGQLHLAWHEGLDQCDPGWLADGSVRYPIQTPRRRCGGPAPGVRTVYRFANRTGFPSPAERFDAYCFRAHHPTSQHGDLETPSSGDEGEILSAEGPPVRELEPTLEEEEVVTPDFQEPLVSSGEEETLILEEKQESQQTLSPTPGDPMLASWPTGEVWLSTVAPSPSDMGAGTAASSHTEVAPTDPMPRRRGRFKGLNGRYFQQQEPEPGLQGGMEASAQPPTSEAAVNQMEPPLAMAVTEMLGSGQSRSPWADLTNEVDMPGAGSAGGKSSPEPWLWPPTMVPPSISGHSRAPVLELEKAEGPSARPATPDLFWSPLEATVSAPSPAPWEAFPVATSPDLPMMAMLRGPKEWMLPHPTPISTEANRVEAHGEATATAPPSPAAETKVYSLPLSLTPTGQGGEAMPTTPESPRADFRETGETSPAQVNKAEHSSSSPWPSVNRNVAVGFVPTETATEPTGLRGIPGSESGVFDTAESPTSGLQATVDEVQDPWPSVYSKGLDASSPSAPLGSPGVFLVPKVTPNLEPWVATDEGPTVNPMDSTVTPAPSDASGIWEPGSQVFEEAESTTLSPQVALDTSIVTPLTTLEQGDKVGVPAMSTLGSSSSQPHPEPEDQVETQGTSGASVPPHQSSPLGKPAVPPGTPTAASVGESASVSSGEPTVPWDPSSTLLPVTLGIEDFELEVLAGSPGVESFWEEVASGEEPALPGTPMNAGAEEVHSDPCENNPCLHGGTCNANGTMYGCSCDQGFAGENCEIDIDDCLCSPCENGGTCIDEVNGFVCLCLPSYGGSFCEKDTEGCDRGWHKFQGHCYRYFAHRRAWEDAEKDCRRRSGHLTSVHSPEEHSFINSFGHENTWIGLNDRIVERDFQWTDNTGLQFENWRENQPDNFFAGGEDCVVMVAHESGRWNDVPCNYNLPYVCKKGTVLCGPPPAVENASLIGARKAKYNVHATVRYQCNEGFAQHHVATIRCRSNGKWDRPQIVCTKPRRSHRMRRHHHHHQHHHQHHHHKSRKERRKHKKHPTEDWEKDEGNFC
Procedure: as §1, §2, §3

[2] = spent medium of chondrocyte aggregates after 48 hours, cytokine array, background subtracted

B1: BbHtrA: Recombinant wild type B. burgdorferi HtrA serine protease, mature protein amino acids 38-474, expressed in E. coli (SEQ ID NO:1, 9) (protein, listed as Borrelia burgdorferi)
chain: EEKDNTVRALQDSFREVSKKILPSSVEVHATGVIKQSFPIPFFFFDMPEFDSERKSNWAGSGVIIGRDSQKKSLFYVVTNSHVVDKATELEVVSYDKKKHKAKLIGKDEKKDIALISFESDDATIKVADLGDSDKLEIGDWVMAVGSPFQFSFTVTAGIVSGLQRSANPNLQSRNLFIQTDAAINRGNSGGPLVNIKGEVIGINAWIASNSGGNIGLGFAIPVNNIKSTVDFFLKGKKIESAWLGISFYPLKTRDSEVLKSLGVESNDVSAAIIASLYPGSPAVKSGLRAGDIIMKVNGVSMSVFQDVTSYISDFYAGEKVNVEILRGNVKKNIEIVLAVRPKDKELSSSKMLPGFVVYPLVEDIKAQLNLRNWIKGVVVDYIDKNLASNIKMKSGDVILSVNSKSVSNLREFYDALEVGKNTYKILRGNDSFKITF
B1 was tested, and the “Cytokines released by chondrocytes in response” value ([1]; additional experiments, FIG. 10: BbHtrA^WT, BbHtrA^S226A) was “CCL5, CCL2, CXCL1, CCL1, sICAM-1, IL-6 and IL-8”, the “Cytokines released by chondrocytes in response” value ([1]; initial experiments, FIG. 9A: BbHtrA, heat denatured BbHtrA) was “CXCL1, CCL1, sICAM-1, IL-6, IL-8 and CCL2” and the “GROα/CXCL1 pixel density, Mean” value [1, 2] was 1.349. The “I-309/CCL1 pixel density, Mean” value [1, 2] was 0.535, the “IL-6 pixel density, Mean” value [1, 2] was 0.627 and the “IL-8 pixel density, Mean” value [1, 2] was 1.581. The “MCP-1/CCL2 pixel density, Mean” value [1, 2] was 0.452, the “RANTES/CCL5 pixel density, Mean” value [1, 2] was 0.736 and the “sICAM-1/CD54 pixel density, Mean” value [1, 2] was 0.890. The Degradation of biglycan (Biglycan) was “degrades” and the Degradation of neurocan (Neurocan) was “degrades”.
